The record followed here is publication PMC5465072.

Details in all cases: modification not given
Assay [1] concerns the target T1, CMG2 38-218 (Homo sapiens), P58335.
T1 chain: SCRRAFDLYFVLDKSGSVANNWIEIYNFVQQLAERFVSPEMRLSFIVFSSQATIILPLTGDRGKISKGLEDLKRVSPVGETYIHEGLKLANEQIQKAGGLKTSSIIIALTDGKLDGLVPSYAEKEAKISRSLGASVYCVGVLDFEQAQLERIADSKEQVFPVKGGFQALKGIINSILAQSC
As to the kind of experiment: sandwich ELISA (competition with His6-PA 488-735).

Assay [2] has the same target. As to the kind of experiment: sandwich ELISA (competition with His6-PA 596-735).
For assay [3] the target is unchanged. Nature of the assay: microscale thermophoresis.
Assay [4] deals with T2, Protective antigen (PA) 488-735 (Bacillus anthracis), P13423.
The target of assay [5] is T2, Protective antigen (PA) 488-735 …. As to the kind of experiment: ELISA.

B1: CLRFT (peptide)
chain: CLRFT
With B1, the values for the IC50 in assay [1] and in assay [2] were 77.1 µM and 71.3 µM, respectively. Besides, in assay [3], the Kd was 30.2 µM.

B2: CMNHFPA (peptide)
chain: CMNHFPA
B2: the Kd in assay [4] stood at 38.2 µM. In assay [5], the concentration for half-maximal inhibition (IC50) amounted to 49.8 µM.

B3: HPCNAMF (scrambled CMNHFPA) (peptide)
chain: HPCNAMF
Consider B3, for which the concentration for half-maximal inhibition (IC50) in assay [5] is 153 µM.
